Laboratory results from paper PMC10959958.

Molecular target: 4-HNE-modified recombinant C99 with mutation Lys53Arg (human)
Assay: SDS-PAGE with Western blot; recombinant C99 or C99^Lys53Arg reacted with 50-fold (R)-4-HNE (25 mM HEPES, 150 mM NaCl, pH 7.4, 37 °C, 1 h); C99 detected by C1/6.1 antibody, adducts by 4-HNE antibody; oligomer bands on the gel

stoichiometry N: 2
Substance: 4-HNE-modified recombinant C99 with mutation Lys53Arg (domain or fragment)
